Patent US20210333284A1, “METHODS AND MATERIALS FOR LARGE-SCALE ASSESSMENT OF LIGAND BINDING SELECTIVITY OF G-QUADRUPLEX RECOGNITION USING CUSTOM G4 MICROARRAYS” (Purdue Research Foundation, priority 2020, published 2021)

Legend:
[1] = tested on: G4 sequences and non-G4 ssDNA controls on Design 3 microarray; assay: Custom G4 DNA microarray, direct binding by fluorescence intensity; design: species or system human
Source text: Three Agilent DNA microarrays (TABLE 1) were designed, each with four identical sectors that contain ca.177,440 ssDNA 60-mers to examine G4-binding specificity. Arrays were designed with 9-73 replicates of each unique sequence to ensure statistical significance (TABLE 1). Each microarray contains different sets of G4 variants designed to examine several sequence parameters that affect G4 formation and binding specificity such as loop length (Design 1), loop sequence (Design 2), tail sequence (Design 2), and single nucleotide variants of six known G4s (Design 3). All microarrays include a set of 19 sequences from human telomeres and oncogene promoters known to form G4s with various topologies as positive controls (TABLE 2). Designs 2 and 3 have a set of 295 additional G4-forming sequences from the literature.^30 For the loop length variants, the length of the tails and loops of four different MYC G4 sequences (MYC Pu27, MYC Pu18ntd, MYC Pu22, and MYC Pu22 NMR mutant) was increased up to five times their length. Loop and tail sequences were varied using A, T, G, and C polynucleotide stretches and a subset of combinations. For the loop sequence variants, 4,096 sequences of the form NGGGNGGGNNGGGNGGGN (SEQ ID NO: 2) and 64 variants of the form GGGNGGGNGGGNGGG (SEQ ID NO: 1) were generated. For the tail variants, 256 versions of the major MYC G4 with all possible dinucleotide tails ([…] (SEQ ID NO: 3)) were generated. […]
The binding specificities of several molecules were evaluated. […] Binding of each molecule is measured by detection of fluorescence intensity at each of the microarray features. […] Cellular proteins were expressed as chimeric proteins containing GST, and binding for these proteins was detected using an anti-GST antibody conjugated with Cy5 (Materials and Methods). […] For Cy5-PDS, robust binding is observed at 1 μM, with fluorescence intensities ranging over 100-fold between strongest and weakest bound DNA features. The fluorescence-binding intensities of Cy5-PDS are proportional to the concentration of pyridostatin used). […]

[2] = tested on: genomic G4 sequences (folded G4 structures); assay: G4 microarray binding in potassium vs lithium; design: species or system human; conditions: GST-tagged proteins
Experimental: The binding specificities of several molecules were evaluated. Microarrays were preincubated with 100 mM potassium chloride to induce G4 formation. Binding of each molecule is measured by detection of fluorescence intensity at each of the microarray features. BG4 and pyridostatin were conjugated with Cy5. Cellular proteins were expressed as chimeric proteins containing GST, and binding for these proteins was detected using an anti-GST antibody conjugated with Cy5 (Materials and Methods). G4 Structures Fold on DNA Microarrays. To evaluate the utility of DNA microarrays to examine G4-binding specificity, a Cy5-labeled pyridostatin (Cy5-PDS), a small molecule known to bind broadly to G4 structures, was synthesized.^13 A Cy5 conjugated version of BG4 (Cy5-BG4), an antibody developed to bind G4s, was also obtained.^31 FIG. 1A, B presents replicate binding intensities to 15,491 DNA sequences on the Design 3 microarray using either Cy5-PDS or Cy5-BG4. For Cy5-PDS, robust binding is observed at 1 μM, with fluorescence intensities ranging over 100-fold between strongest and weakest bound DNA features. The fluorescence-binding intensities of Cy5-PDS are proportional to the concentration of pyridostatin used). […] Antibody binding to non-G4 features increases with higher concentrations, and in some cases non-G4 sequences are more strongly bound by Cy5-BG4 than G4 sequences, including multiple cytosine-rich negative control sequences. Inhibition of G4 Formation Inhibits Cy5-PDS and Cy5-BG4 Binding. Cy5-PDS and Cy5-BG4 binding under conditions that inhibit G4 formation was examined to evaluate if G4 structures form on the microarray and are required for binding. […] It is noted that many sequences, in addition to the oncogene G4 sequences, are capable of forming G4s. […] For Cy5-BG4, the decrease in binding was up to 270-fold for genomic G4 sequences, while binding to negative controls decreased up to 23-fold (FIG. 1D,). In a second experiment, Cy5-PDS binding following a primer extension reaction that produces dsDNA^24 was examined (see Materials and Methods), anticipating that dsDNA would predominate over G4 formation^13. […] 2,27,28
Microarrays were preincubated with a 100 mM potassium chloride solution for 1 h at RT to induce G4 formation. Protein binding microarray experiments were then performed as previously described.^23 Microarrays were blocked with 4% nonfat dry milk in a potassium phosphate buffer before incubation with proteins or small molecules. Expressed proteins were blocked with 4% nonfat dry milk, ssDNA, and BSA. For the validation experiments, microarrays were also treated with 100 mM lithium chloride to inhibit G4 formation. For experiments examining dsDNA, single-stranded DNA probes were made double-stranded using a primer complementary to a 24-mer constant sequence following the method described previously.^23,24 Double stranding efficiency was monitored using 4% Cy3-dCTP.
Protein or molecule-bound microarrays were scanned with the G5761A SureScan Dx Microarray Scanner System (Agilent) to detect a Cy5 signal at two laser settings (30 and 100 PMT) to ensure signal intensities were below saturation. Spot intensities from microarray images were extracted using the Agilent Feature Extraction Software and are reported as raw fluorescence units. All binding assays were performed at least twice, with high agreement between replicates (R>0.8). Microarrays with the fewest number of saturated spots were used for further analysis. Median intensity was then computed for probes containing identical sequence on each microarray. […]

| Molecule | binding specificity, G4 vs non-G4 ssDNA sequences [1] | effect of lithium chloride (inhibiting G4 formation) on protein binding [2] |
| --- | --- | --- |
| DHX36: GST-tagged human DHX36/G4R1/MLEL1 helicase (protein, listed as Homo sapiens, GST tag, GST-tagged human DHX36/G4R1/MLEL1 helicase) MSYDYHQNWGRDGGPRSSGGGYGGGPAGGHGGNRGSGGGGGGGGGGRGGRGRHPGHLKGREIGMWYAKKQGQKNKEAERQERAVVHMDERREEQIVQLLNSVQAKNDKESEAQISWFAPEDHGYGTEVSTKNTPCSENKLDIQEKKLINQEKKMFRIRNRSYIDRDSEYLLQENEPDGTLDQKLLEDLQKKKNDLRYIEMQHFREKLPSYGMQKELVNLIDNHQVTVISGETGCGKTTQVTQFILDNYIERGKGSACRIVCTQPRRISAISVAERVAAERAESCGSGNSTGYQIRLQSRLPRKQGSILYCTTGIILQWLQSDPYLSSVSHIVLDEIHERNLQSDVLMTVVKDLLNFRSDLKVILMSATLNAEKFSEYFGNCPMIHIPGFTFPVVEYLLEDVIEKIRYVPEQKEHRSQFKRGFMQGHVNRQEKEEKEAIYKERWPDYVRELRRRYSASTVDVIEMMEDDKVDLNLIVALIRYIVLEEEDGAILVFLPGWDNISTLHDLLMSQVMFKSDKFLIIPLHSLMPTVNQTQVFKRTPPGVRKIVIATNIAETSITIDDVVYVIDGGKIKETHFDTQNNISTMSAEWVSKANAKQRKGRAGRVQPGHCYHLYNGLRASLLDDYQLPEILRTPLEELCLQIKILRLGGIAYFLSRLMDPPSNEAVLLSIRHLMELNALDKQEELTPLGVHLARLPVEPHIGKMILFGALFCCLDPVLTIAASLSFKDPFVIPLGKEKIADARRKELAKDTRSDHLTVVNAFEGWEEARRRGFRYEKDYCWEYFLSSNTLQMLHNMKGQFAEHLLGAGFVSSRNPKDPESNINSDNEKIIKAVICAGLYPKVAKIRLNLGKKRKMVKVYTKTDGLVAVHPKSVNVEQTDFHYNWLIYHLKMRTSSIYLYDCTEVSPYCLLFFGGDISIQKDNDQETIAVDEWIVFQSPARIAHLVKELRKELDILLQEKIESPHPVDWNDTKSRDCAVLSAIIDLIKTQEKATPRNFPPRFQDGYYS | bind only G4 sequences | weakened binding |
| FANCJ: GST-tagged human BRCA1-binding helicase-like protein / Fanconi anemia group J protein (protein, listed as Homo sapiens, GST tag) MSSMWSEYTIGGVKIYFPYKAYPSQLAMMNSILRGLNSKQHCLLESPTGSGKSLALLCSALAWQQSLSGKPADEGVSEKAEVQLSCCCACHSKDFTNNDMNQGTSRHFNYPSTPPSERNGTSSTCQDSPEKTTLAAKLSAKKQASIYRDENDDFQVEKKRIRPLETTQQIRKRHCFGTEVHNLDAKVDSGKTVKLNSPLEKINSFSPQKPPGHCSRCCCSTKQGNSQESSNTIKKDHTGKSKIPKIYFGTRTHKQIAQITRELRRTAYSGVPMTILSSRDHTCVHPEVVGNFNRNEKCMELLDGKNGKSCYFYHGVHKISDQHTLQTFQGMCKAWDIEELVSLGKKLKACPYYTARELIQDADIIFCPYNYLLDAQIRESMDLNLKEQVVILDEAHNIEDCARESASYSVTEVQLRFARDELDSMVNNNIRKKDHEPLRAVCCSLINWLEANAEYLVERDYESACKIWSGNEMLLTLHKMGITTATFPILQGHFSAVLQKEEKISPIYGKEEAREVPVISASTQIMLKGLFMVLDYLFRQNSRFADDYKIAIQQTYSWTNQIDISDKNGLLVLPKNKKRSRQKTAVHVLNFWCLNPAVAFSDINGKVQTIVLTSGTLSPMKSFSSELGVTFTIQLEANHIIKNSQVWVGTIGSGPKGRNLCATFQNTETFEFQDEVGALLLSVCQTVSQGILCFLPSYKLLEKLKERWLSTGLWHNLELVKTVIVEPQGGEKTNFDELLQVYYDAIKYKGEKDGALLVAVCRGKVSEGLDFSDDNARAVITIGIPFPNVKDLQVELKRQYNDHHSKLRGLLPGRQWYEIQAYRALNQALGRCIRHRNDWGALILVDDRFRNNPSRYISGLSKWVRQQIQHHSTFESALESLAEFSKKHQKVLNVSIKDRTNIQDNESTLEVTSLKYSTPPYLLEAASHLSPENFVEDEAKICVQELQCPKIITKNSPLPSSIISRKEKNDPVFLEEAGKAEKIVISRSTSPTFNKQTKRVSWSSFNSLGQYFTGKIPKATPELGSSENSASSPPRFKTEKMESKTVLPFTDKCESSNLTVNTSFGSCPQSETIISSLKIDATLTRKNHSEHPLCSEEALDPDIELSLVSEEDKQSTSNRDFETEAEDESIYFTPELYDPEDTDEEKNDLAETDRGNRLANNSDCILAKDLFEIRTIKEVDSAREVKAEDCIDTKLNGILHIEESKIDDIDGNVKTTWINELELGKTHEIEIKNFKPSPSKNKGMFPGFK | also bind other ssDNAs in addition to folded G4s | weakened binding |
